Assay [1] concerns the target wild-type (untethered) III2IV2 respiratory supercomplex with Cox4-Flag (S. cerevisiae) (UniProt P07256). Nature of the assay: co-IP.
Assay [2] addresses T1, Cor1, subunit of complex III (S. cerevisiae, UniProt P07256 27-457).
T1 sequence: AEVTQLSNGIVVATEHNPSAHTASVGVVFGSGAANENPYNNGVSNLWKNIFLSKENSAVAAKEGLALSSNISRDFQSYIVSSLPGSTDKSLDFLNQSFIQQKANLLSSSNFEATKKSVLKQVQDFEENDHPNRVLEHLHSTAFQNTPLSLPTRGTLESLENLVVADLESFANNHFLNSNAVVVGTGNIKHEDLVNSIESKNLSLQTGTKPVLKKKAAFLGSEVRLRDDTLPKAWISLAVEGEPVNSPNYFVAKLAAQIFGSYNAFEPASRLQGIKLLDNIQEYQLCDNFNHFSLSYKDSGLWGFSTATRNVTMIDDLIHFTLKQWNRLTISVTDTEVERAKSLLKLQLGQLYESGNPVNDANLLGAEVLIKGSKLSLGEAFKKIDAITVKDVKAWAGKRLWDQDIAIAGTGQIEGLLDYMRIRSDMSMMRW
Nature of the assay: cryo-EM structure.

2 molecules from paper doi:10.1101/2024.12.19.629262 (bioRxiv, 2024) can be followed below.

B1: Nde1, external mitochondrial NADH dehydrogenase (enzyme)
chain: EDKKVILQKVAPTTGVVAKQSFFKRTGKFTLKALLYSALAGTAYVSYSLYREANPSTQVPQSDTFPNGSKRKTLVILGSGWGSVSLLKNLDTTLYNVVVVSPRNYFLFTPLLPSTPVGTIELKSIVEPVRTIARRSHGEVHYYEAEAYDVDPENKTIKVKSSAKNNDYDLDLKYDYLVVGVGAQPNTFGTPGVYEYSSFLKEISDAQEIRLKIMSSIEKAASLSPKDPERARLLSFVVVGGGPTGVEFAAELRDYVDQDLRKWMPELSKEIKVTLVEALPNILNMFDKYLVDYAQDLFKEEKIDLRLKTMVKKVDATTITAKTGDGDIENIPYGVLVWATGNAPREVSKNLMTKLEEQDSRRGLLIDNKLQLLGAKGSIFAIGDCTFHPGLFPTAQVAHQEGEYLAQYFKKAYKIDQLNWKMTHAKDDSEVARLKNQIVKTQSQIEDFKYNHKGALAYIGSDKAIADLAVGEAKYRLAGSFTFLFWKSAYLAMCLSFRNRVLVAMDWAKVYFLGRDSSI
For B1, in assay [1], the fold decrease of co-purified Nde1 (normalised to purified SC) against III2IV1 SC was 2 fold.

B2: Cox5a, subunit of complex IV (natural protein)
chain: AQTHALSNAAVMDLQSRWENMPSTEQQDIVSKLSERQKLPWAQLTEPEKQAVWYISYGEWGPRRPVLNKGDSSFIAKGVAAGLLFSVGLFAVVRMAGGQDAKTMNKEWQLKSDEYLKSKNANPWGGYSQVQSK
Turning to B2, the binding result in assay [2] is “binds”.
